± gives the standard deviation of the averaged measurements.
Test system: ATP
Experiment: switch fluorescence ratio, 500 uM ATP over buffer (Cy3 cluster intensity, sum of 5 cycles each) (fold (ratio)); higher = stronger signal-on switching upon ATP binding; sequences stand for … in TCGTCGGCAGCGTCAGATGTGTATAAGAGACAGTTTTTTTTTTTTTTTTTTTTTTTTT…TC
Details: aptamer strand: ATP DNA aptamer (quencher-CACCTGGGGGAGTATTGCGGAGGAAGG + anchor), 100 nM annealed; ATP concentration: 500 uM
Procedure, shortened: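 Switching-strand clusters labelled with Cy3 on a modified Illumina MiSeq flow-cell were annealed to 100 nM quencher-labelled ATP aptamer, imaged in selection buffer, and re-imaged after 15 min with 500 uM ATP at 22 °C. This was done over five cycles with NaOH stripping and re-annealing in between. The fluorescence ratio is summed target-cycle over summed buffer-cycle Cy3 intensity per cluster, averaged per switch-domain sequence, excluding clusters outside 100-1000 RFU.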
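Also: ATP exposure 15 min at 22 °C before imaging.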

Sequence	switch fluorescence ratio
TTTAGAGGGG	1.02 ± 0.024
TATTCAGTCG	0.9927 ± 0.0051
GGCTTTGTCC	0.991 ± 0.032
TGTTACGGCA	1.08 ± 0.041
TCACTTAATA	0.994 ± 0.014
CCCTAGGATT	1.01 ± 0.03
TCGGATGCGT	1.03 ± 0.035
AATCTGATGT	1.18 ± 0.28
GCATGGGCAG	0.999 ± 0.023
AAAATCAGAG	0.97 ± 0.024
CCTCATTGGT	1.026 ± 0.0093
GGACTAGGTT	1.006 ± 0.0033
TGCAGGAAAC	1.05 ± 0.036
CGGTTGCATT	1.04 ± 0.031
GAAAGCTGAG	1.18 ± 0.033
AATGGGTGGT	1 ± 0.017
CATGGGGCTA	1.02 ± 0.031
CGAGCACGGG	1.47 ± 0.053
TTCCTTGTAG	1.02 ± 0.017
CAAAAAAAGA	0.986 ± 0.067
GCTGGGCACG	0.954 ± 0.015
ATAAGTATGT	1 ± 0.018
AAGGATGCAT	1.03 ± 0.038
AGTCTTAGTC	0.9497 ± 0.002
AATTTCGTTG	0.999 ± 0.029
TCTGTTGAAT	1.01 ± 0.072

Sequence	switch fluorescence ratio
GTTCATACGG	1.06 ± 0.043
TAAAGGTTGT	0.994 ± 0.055
AGCCTTTTTC	1.08 ± 0.091
CTAGGGGAGA	1.018 ± 0.0038
TCTTTTAATT	1.05 ± 0.07
GTTGAAACAC	1.02 ± 0.046
GATCTTCGGC	0.9541 ± 0.0027
GTATGGGGGC	0.974 ± 0.063
TAACGCTTAA	1.09 ± 0.033
CAACTGCGTG	0.989 ± 0.013
GCCGTTTTAC	1.17 ± 0.05
AATAGTTTG	1.01 ± 0.017
GATGTTAAAC	1.06 ± 0.02
AGAAGGCGCG	1.01 ± 0.038
CTGGGTATTT	0.999 ± 0.04
AAAGATTGTT	0.954 ± 0.011
TCAAATGGCG	0.923 ± 0.023
TCGGGGTTTT	1.02 ± 0.036
GAGTGGCACC	1.04 ± 0.042
GTGGGCTTGT	0.979 ± 0.048
AGGTTGTCAA	0.969 ± 0.028
GGGATTGAAT	1.01 ± 0.032
TGGGGCGTTG	1.01 ± 0.019
TAGCTTTTTT	1.002 ± 0.0045
GGAGAGAAGC	1.02 ± 0.076
AAGGTGGCCC	1.03 ± 0.023

Sequence	switch fluorescence ratio
AGGTAACGGG	0.987 ± 0.0099
TTAAACCCAC	1.35 ± 0.023
TTTTTGTTAT	0.996 ± 0.02
GTAACCAAGA	1.02 ± 0.0035
TGGTAGGGTT	0.969 ± 0.028
AAAGGGGGGT	0.989 ± 0.025
AAAGGAAAGT	1.01 ± 0.02
TAGGAGTTAT	1.01 ± 0.04
TCAATCAGGT	1.032 ± 0.0019
CATTACTTTT	1.01 ± 0.014
TTATGCGGTT	0.992 ± 0.02
GGAAAAAGGC	0.9838 ± 0.0058
GTCTCGTTCC	1.09 ± 0.14
CGATCAGTTG	0.9853 ± 0.004
TAGGGTAAGT	0.9905 ± 0.0089
CCTTTTTCAC	1.03 ± 0.032
TAGGGAGGGA	0.9801 ± 0.0069
ATGCACTCGA	1.03 ± 0.012
GTCACACTAT	1.02 ± 0.034
TCTTTTGGTA	0.9895 ± 0.0052
CGGGGTGAAC	0.994 ± 0.038
CGAAACTTGA	1.02 ± 0.038
TTTTTGCTTC	1.02 ± 0.043
TTTAAATCCT	1.09 ± 0.013
ATAATTGAAG	0.99 ± 0.027
TCTCACGGAA	1.68 ± 0.19

Sequence	switch fluorescence ratio
TTTCTATGTA	1.01 ± 0.024
AATGACTTAA	1.01 ± 0.048
AGTGGTGGTT	0.977 ± 0.057
AGCAGTGTCT	1.04 ± 0.02
TACAGAATGT	1.03 ± 0.023
AGTGGGATTA	1.01 ± 0.021
AAGGGGCCCC	1.31 ± 0.49
GGTCGGCGGG	1.03 ± 0.1
AGCGTCAACG	0.954 ± 0.015
GCTAGGTGAC	1.1 ± 0.037
GTGTGAGTAG	1.02 ± 0.039
TCGCCCTCCA	1.26 ± 0.12
GGCTTAAAAA	0.982 ± 0.021
CCGGGCCAGC	1.47 ± 0.063
AGGTTGGGTT	0.997 ± 0.023
AGTCCTTTTT	0.979 ± 0.021
TATAGGTGAG	1.01 ± 0.03
AGTGGCTTCC	2.043 ± 0.013
TTAATAAGGG	1 ± 0.024
GATTTAGGGG	0.961 ± 0.042
AAAAGGTCGT	0.999 ± 0.019
CCTGGAGGGG	1.07 ± 0.066
GGACACTCTG	0.977 ± 0.013
GGACGGCTGC	1.02 ± 0.029
TCTGTGGTGT	1.026 ± 0.0028
TTAAATCATT	1.014 ± 0.0099

Sequence	switch fluorescence ratio
ATCTTGGTCC	0.9948 ± 0.003
ATCTTCGGTT	1 ± 0.055
TTTCTGCGGC	1.046 ± 0.0017
TTCGTTGTGG	1.031 ± 0.0047
AAAAGGAGAC	1.01 ± 0.028
ACCAATGTTC	1.03 ± 0.033
TTTTGCGGGT	0.983 ± 0.032
TTACTTTATT	1.05 ± 0.053
CGGTGTATTC	0.988 ± 0.011
GTAGTTGATG	0.9665 ± 0.0026
AATATTGGGG	0.981 ± 0.029
TTTTGATTTC	1.02 ± 0.039
AAACGCAGGG	1.03 ± 0.029
CGGTCGAGGA	0.988 ± 0.021
TTATAGTTAT	1.001 ± 0.0029
TTCGTTTATC	1.07 ± 0.093
GCGCGGGGCC	0.999 ± 0.032
ACTCTGGTCA	0.986 ± 0.027
TTTTGATAAT	0.991 ± 0.016
CCGGGATTGA	1.083 ± 0.0038
GTAAGTCCGA	0.98 ± 0.0033
TGGCTGGAAC	0.981 ± 0.021
TGCGTTGGTG	1.006 ± 0.0061
GCTCTATGTA	1.03 ± 0.014
AATCGCGGCT	1.01 ± 0.029
GAATGGGATA	1.04 ± 0.084

Sequence	switch fluorescence ratio
AGAATTACTT	1.001 ± 0.0092
GCATGGTTAT	0.993 ± 0.036
ACTTACGGCG	1.168 ± 0.0051
GACCGGCGTC	1.02 ± 0.017
TGATGGGGTC	0.991 ± 0.013
ATGTGGGCAA	1.08 ± 0.013
TCGAAAAGGG	0.992 ± 0.015
TCCGGGGGAT	1.32 ± 0.38
TTGGGAGGAG	1.01 ± 0.025
CAAGGGTATT	1.01 ± 0.017
TTTCTGTTGT	1.14 ± 0.16
CGGTAGCTTG	1 ± 0.019
GGGGTGTTAG	1.02 ± 0.012
GCGAAAGTCG	1.018 ± 0.0069
ACTTTTGCGG	1.021 ± 0.0092
GCTTGCCGGT	1 ± 0.037
GCGGGGATTT	0.996 ± 0.023
GGATGACGTC	1.035 ± 0.0091
TCAGCCTAGG	1.02 ± 0.023
TCGGCGGCTG	0.984 ± 0.01
GGGCTAAGAG	1.05 ± 0.038
ACATTTTACT	1.12 ± 0.014
AGCATTGTTT	0.985 ± 0.023

Reference: the supplement of paper PMC10126150
